# Laboratory results from patent US20120058906A1 (published 2012).
# T1: rHuman Erythropoietin R/Fc Chimera, CF (R&D Systems Cat#963-ER) (human, UniProt P19235 25-250)
# T1 construct: Bought Fc chimera; also called EPO R/Fc; erythropoietin receptor; Fc part of the bought chimera not given
# T1 sequence: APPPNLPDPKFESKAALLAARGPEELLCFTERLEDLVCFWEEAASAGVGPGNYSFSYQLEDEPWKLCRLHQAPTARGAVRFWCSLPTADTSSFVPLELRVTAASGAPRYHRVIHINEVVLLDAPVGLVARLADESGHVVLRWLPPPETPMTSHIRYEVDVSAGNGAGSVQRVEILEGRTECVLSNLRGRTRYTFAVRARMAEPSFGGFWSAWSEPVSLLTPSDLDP
# T2: rHuman Erythropoietin R/Fc Chimera, CF (R&D Systems Cat#963-ER) (human, UniProt P19235 25-250)
# T2 construct: Bought Fc chimera; also called EPO R/Fc; Epo R; not shown: Fc of the bought chimera
# T2 sequence: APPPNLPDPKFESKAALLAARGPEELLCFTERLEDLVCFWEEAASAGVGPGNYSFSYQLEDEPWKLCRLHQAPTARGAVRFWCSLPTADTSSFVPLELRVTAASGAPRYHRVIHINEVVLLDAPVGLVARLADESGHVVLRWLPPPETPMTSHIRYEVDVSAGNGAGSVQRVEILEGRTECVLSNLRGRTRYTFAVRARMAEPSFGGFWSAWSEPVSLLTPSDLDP
# Legend:
# [1] = biological target: T3, rHuman CD44/Fc Chimera, CF (R&D Systems Cat#3660-CD) (human, UniProt P16070 21-220); test: ECL (MSD Multi-Spot) binding, antigen spotted on plate; Fab 0.5 nM
# T3 construct: Bought Fc chimera; Fc part of the bought chimera not given
# [2] = biological target: T4, rHuman IGF-1 sR, CF (R&D Systems Cat#391-GR) (human, UniProt P08069 31-932); test: as above
# T4 construct: Bought soluble receptor; also called insulin-like growth factor-1 soluble receptor; IGF-R1
# [3] = biological target: T5, rHuman P-Cadherin/Fc Chimera, CF (R&D Systems Cat#861-PC) (human, UniProt P22223 108-654); test: as above
# T5 construct: Bought Fc chimera; Fc part of the bought chimera not given
# [4] = biological target: T1, rHuman Erythropoietin R/Fc Chimera, CF …; test: as above
# [5] = biological target: T6, Recombinant Human DLL4 (R&D Systems Cat#1506-D4/CF) (human, UniProt Q9NR61 27-524); test: as above
# T6 construct: Bought recombinant protein; also called delta-like protein 4
# [6] = biological target: T7, rHuman ErbB2/Fc Chimera, CF (R&D Systems Cat#1129-ER) (human, UniProt P04626 23-652); test: as above
# T7 construct: Bought Fc chimera; also called human epidermal growth factor 2 receptor; HER2/neu; Fc part of the bought chimera not given
# [7] = biological target: T8, rHuman EGF R/Fc Chimera, CF (R&D Systems Cat#344-ER) (human, UniProt P00533 25-645); test: as above
# T8 construct: Bought Fc chimera; also called epidermal growth factor receptor; Fc part of the bought chimera not given
# [8] = biological target: T9, rHuman HGF R/c-MET/Fc Chimera, CF (R&D Systems Cat#358-MT/CF) (human, UniProt P08581 25-932); test: as above
# T9 construct: Bought Fc chimera; also called HGF R/Fc; hepatocyte growth factor receptor; Fc part of the bought chimera not given
# [9] = biological target: T10, rHuman Notch-1/Fc Chimera, CF (R&D Systems Cat#3647-TK) (human, UniProt P46531 19-526); test: as above
# T10 construct: Bought Fc chimera; Fc part of the bought chimera not given
# [10] = biological target: T11, rHuman IGF-1 sR (insulin-like growth factor-1 soluble receptor), CF (R&D Systems Cat#391-GR) (human, UniProt P08069 31-932); test: ECL (MSD multi-spot), antigen on plate, Fab 2 nM
# T11 construct: Bought soluble receptor; also called IGF-R1
# [11] = biological target: T12, rHuman P-Cadherin/Fc Chimera, CF (R&D Systems Cat#861-PC) (human, UniProt P22223 108-654); test: ECL (MSD multi-spot), antigen on plate, Fab 2 nM
# T12 construct: Bought Fc chimera; also called CDH3; not shown: Fc of the bought chimera
# [12] = biological target: T2, rHuman Erythropoietin R/Fc Chimera, CF …; test: ECL (MSD multi-spot), antigen on plate, Fab 2 nM
# [13] = biological target: T13, Recombinant Human DLL4 (R&D Systems Cat#1506-D4/CF) (human, UniProt Q9NR61 27-524); test: ECL (MSD multi-spot), antigen on plate, Fab 2 nM
# T13 construct: Bought recombinant protein; also called delta-like protein 4
# [14] = biological target: T14, rHuman ErbB2/Fc Chimera, CF (R&D Systems Cat#1129-ER) (human, UniProt P04626 23-652); test: ECL (MSD multi-spot), antigen on plate, Fab 2 nM
# T14 construct: Bought Fc chimera; also called HER2/neu; not shown: Fc of the bought chimera
# [15] = biological target: T15, rHuman EGF R/Fc Chimera, CF (R&D Systems Cat#344-ER) (human, UniProt P00533 25-645); test: ECL (MSD multi-spot), antigen on plate, Fab 2 nM
# T15 construct: Bought Fc chimera; also called ErbB-1; not shown: Fc of the bought chimera
# [16] = biological target: T16, rHuman HGF R/c-MET/Fc Chimera, CF (R&D Systems Cat#358-MT/CF) (human, UniProt P08581 25-932); test: ECL (MSD multi-spot), antigen on plate, Fab 2 nM
# T16 construct: Bought Fc chimera; also called HGF R/Fc; not shown: Fc of the bought chimera
# [17] = biological target: T17, rHuman Notch-1/Fc Chimera, CF (R&D Systems Cat#3647-TK) (human, UniProt P46531 19-526); test: ECL (MSD multi-spot), antigen on plate, Fab 2 nM
# T17 construct: Bought Fc chimera; not shown: Fc of the bought chimera
# [18] = biological target: T18, rHuman CD44/Fc Chimera, CF (R&D Systems Cat#3660-CD) (human, UniProt P16070 21-220); test: ECL (MSD multi-spot), antigen on plate, Fab 2 nM
# T18 construct: Bought Fc chimera; not shown: Fc of the bought chimera
# [19] = biological target: T19, Recombinant Human DLL4 (R&D Systems Cat#1506-D4/CF) (human, UniProt Q9NR61 27-524); test: ECL (MSD Multi-Spot) binding assay, antigen spotted on plate; Fab 7.5 nM; blank spot 217
# T19 construct: Bought recombinant protein; also called delta-like protein 4; rHuman DLL4
# 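Note: blank spot per well as comparator with Hit at signal to blank ratio of 4 or more.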
binder,measurement,setting,value
"Fab VH1-46_IGHD6-6*01_IGHJ1*01_S102A_S103P_S104F_H111Y & L6_IGKJ1*01 (Fab, V domains shown, Fab made in E. coli; The heavy chain also carries the CH1 with Flag and His tags of Plasmid A, and the light chain the kappa constant region of Plasmid C) VH: QVQLVQSGAEVKKPGASVKVSCKASGYTFTSYYMHWVRQAPGQGLEWMGIINPSGGSTSYAQKFQGRVTMTRDTSTSTVYMELSSLRSEDTAVYYCAREEYAPFSAEYFQYWGQGTLVTVSS VL: not shown",ECL signal,[1],279
same,ECL signal,[2],164
same,ECL signal,[3],215
same,ECL signal,[4],359
same,ECL signal,[5],2970
same,ECL signal,[6],331
same,ECL signal,[7],273
same,ECL signal,[8],319
same,ECL signal,[9],263
"Fab VH1-46_IGHD6-6*01_IGHJ1*01_S102A_S103P_S104F & L6_IGKJ1*01_S30N (Fab, V domains shown, Fab) VH: QVQLVQSGAEVKKPGASVKVSCKASGYTFTSYYMHWVRQAPGQGLEWMGIINPSGGSTSYAQKFQGRVTMTRDTSTSTVYMELSSLRSEDTAVYYCAREEYAPFSAEYFQHWGQGTLVTVSS VL: EIVLTQSPATLSLSPGERATLSCRASQSVNSYLAWYQQKPGQAPRLLIYDASNRATGIPARFSGSGSGTDFTLTISSLEPEDFAVYYCQQRSNWPPWTFGQGTKVEIKR",ECL signal,[10],296 ECL signal
same,ECL signal,[11],395 ECL signal
same,ECL signal,[12],294 ECL signal
same,ECL signal,[13],11400 ECL signal
same,ECL signal,[14],138 ECL signal
same,ECL signal,[15],171 ECL signal
same,ECL signal,[16],207 ECL signal
same,ECL signal,[17],274 ECL signal
same,ECL signal,[18],209 ECL signal
"Fab VH6-1_IGHD3-3*01_IGHJ4*01 & V4-3_IGLJ4*01 (Fab, V domains shown, Tested as a Fab made in E. coli; also called IGHV6-1*01) VH: QVQLQQSGPGLVKPSQTLSLTCAISGDSVSSNSAAWNWIRQSPSRGLEWLGRTYYRSKWYNDYAVSVKSRITINPDTSKNQFSLQLNSVTPEDTAVYYCAREYYDFWSGYYTDYFDYWGQGTLVTVSS VL: QPVLTQPTSLSASPGASARLTCTLRSGINLGSYRIFWYQQKPESPPRYLLSYYSDSSKHQGSGVPSRFSGSKDASSNAGILVISGLQSEDEADYYCMIWHSSASFVFGGGTQLIIL",ECL signal,[19],598
